Results published in US20260049148A1, “PROTEASE-CLEAVABLE MOIETIES AND METHODS OF USE THEREOF” (CytomX Therapeutics, Inc., priority 2022, published 2026).
Square brackets hold non-standard residues; d marks the D form. Ends that are not written are not given here. * marks the point of attachment. Dnp = O=[N+]([O-])c1ccc(*)c([N+](=O)[O-])c1; Mca = COc1ccc2c(CC(=O)*)cc(=O)oc2c1

Key:
Assay in all cases: Internally quenched peptide probe cleavage assay
Format in all cases: biochemical
Conditions in all cases: 20 μM internally quenched peptide probe, 20 nM protease, 37° C.
[1] = target: MMP14 (Homo sapiens, UniProt P50281)
Excerpt: (§1) The study provided herein evaluated the cleavability kinetics (i.e., pM/s and kcat/KM (M^−1s^−1)) of CMs with matrix metalloprotease (MMP) 2 (MMP2), MMP9, and MMP14. The CM AIALY (SEQ ID NO: 5) was presented in an internally quenched peptide probe format, rather than included in an activatable antibody format. In the internally quenched probe, the CM sequence was positioned between a 7-methoxycoumarin-4-acetyl (MCA) fluorophore and a 2,4-dinitrophenyl (DNP) quencher such that cleavage of the CM sequence produces a fluorescence signal. The probe was of the following design: (MCA)-[…](DNP)-D-Arg (SEQ ID NO: 160). The cleavage rates (pM/s) were measured using 20 μM internally quenched peptide probe and 20 nM MMP2, MMP9, or MMP14. Cleavability kinetics (i.e., pM/s and kcat/KM (M^−1s^−1)) were determined in 96- or 384-well plate format at 37° C. in the following buffers: 50 mM Tris-HCl (pH 7.5), 10 mM CaCl2), 150 mM NaCl, 0.05% (w/v) Brij-35 for MMP2 and MMP9 or 50 mM HEPES (pH 6.8), 10 mM CaCl2), 0.5 mM MgCl2, 0.05% (w/v) Brij-35 for MMP14. Cleavability kinetics were determined on an Infinite 200 PRO (Tecan) multimode plate reader using a fluorescence excitation wavelength of 320 nm and an emission wavelength of 405 nm.

[2] = target: T1, MMP2 (Homo sapiens, UniProt P08253)
T1 sequence (P08253 110-660): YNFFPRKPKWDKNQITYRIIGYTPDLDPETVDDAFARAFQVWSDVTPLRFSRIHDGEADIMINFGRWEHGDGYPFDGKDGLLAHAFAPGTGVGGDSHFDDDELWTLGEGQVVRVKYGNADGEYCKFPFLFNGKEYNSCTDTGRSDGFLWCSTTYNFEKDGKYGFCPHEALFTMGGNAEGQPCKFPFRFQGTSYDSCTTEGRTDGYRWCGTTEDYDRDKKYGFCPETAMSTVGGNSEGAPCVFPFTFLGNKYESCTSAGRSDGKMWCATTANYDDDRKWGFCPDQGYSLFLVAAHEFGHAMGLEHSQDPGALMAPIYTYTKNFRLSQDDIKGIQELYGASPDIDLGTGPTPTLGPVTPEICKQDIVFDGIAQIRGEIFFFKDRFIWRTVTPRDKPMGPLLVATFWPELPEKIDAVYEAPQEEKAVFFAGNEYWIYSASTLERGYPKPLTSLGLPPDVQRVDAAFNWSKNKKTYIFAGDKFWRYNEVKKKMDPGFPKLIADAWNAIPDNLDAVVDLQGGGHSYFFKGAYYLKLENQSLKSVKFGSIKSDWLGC
Excerpt: as §1

[3] = target: MMP9 (Homo sapiens, UniProt P14780)
MMP9, sequence (P14780 94-707): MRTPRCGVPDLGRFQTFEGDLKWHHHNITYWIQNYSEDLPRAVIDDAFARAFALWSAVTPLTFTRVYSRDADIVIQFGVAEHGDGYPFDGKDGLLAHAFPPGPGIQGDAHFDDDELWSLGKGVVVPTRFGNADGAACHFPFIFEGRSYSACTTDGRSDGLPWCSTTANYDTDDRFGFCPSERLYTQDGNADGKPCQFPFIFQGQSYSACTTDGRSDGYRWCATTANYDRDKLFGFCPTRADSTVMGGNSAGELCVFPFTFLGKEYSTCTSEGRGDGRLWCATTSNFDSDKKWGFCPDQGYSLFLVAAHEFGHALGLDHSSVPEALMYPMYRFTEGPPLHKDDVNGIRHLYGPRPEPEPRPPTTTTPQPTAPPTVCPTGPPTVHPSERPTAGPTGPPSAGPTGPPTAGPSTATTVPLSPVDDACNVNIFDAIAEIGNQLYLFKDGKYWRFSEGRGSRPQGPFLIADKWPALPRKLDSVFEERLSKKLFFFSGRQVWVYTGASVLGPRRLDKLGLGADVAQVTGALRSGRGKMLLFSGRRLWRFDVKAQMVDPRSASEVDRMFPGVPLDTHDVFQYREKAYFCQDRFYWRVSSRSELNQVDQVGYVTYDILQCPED
Excerpt: as §1

(MCA)-Gly-Ser-Ala-Ile-Ala-Leu-Tyr-Gly-Gly-Ser-Lys (DNP)-D-Arg (Mca-GSAIALYGGSK(Dnp)[dR])
Probe Cleavage (pM/s) MMP14 [1]: 145 pM/s | Probe Cleavage (pM/s) MMP2 [2]: 135 pM/s | Probe Cleavage (pM/s) MMP9 [3]: 87.7 pM/s
